Substrate in this data set: O=c1[nH]c(=O)c2[nH]c(=O)[nH]c2[nH]1
Description: purified protein, by the assay type. The note with it: other: 0.1M Na2HPO4/Na2H2PO4, pH 7.4, 24° C.

Usually Km stands for the substrate concentration at which the rate is half of its maximum. By kcat is commonly meant the number of substrate molecules converted per active site and unit of time at saturation.

B1: pig uricase, SEQ ID NO:10 (Sus scrofa) (protein)
chain: MAHYRNDYKKNDEVEFVRTGYGKDMIKVLHIQRDGKYHSIKEVATSVQLTLSSKKDYLHGDNSDVIPTDTIKNTVNVLAKFKGIKSIETFAVTICEHFLSSFKHVIRAQVYVEEVPWKRFEKNGVKHVHAFIYTPTGTHFCEVEQIRNGPPVIHSGIKDLKVLKTTQSGFEGFIKDQFTTLPEVKDRCFATQVYCKWRYHQGRDVDFEATWDTVRSIVLQKFAGPYDKGEYSPSVQKTLYDIQVLTLGQVPEIEDMEISLPNIHYLNIDMSKMGLINKEEVLLPLDNPYGRITGTVKRKLTSRL
Regarding B1, the Michaelis constant (Km) was found to be 2.1 µM and the turnover number (kcat) was 7.83 s⁻¹.

Values taken from US8940861B2, “Variants of ancestral uricases and uses thereof” (Georgia Tech Research Corporation, priority 2010, dated 2015).
